Results published in patent US20150072922A1, “RNASE 7 ANTIMICROBIAL PEPTIDES” (THE RESEARCH INSTITUTE AT NATIONWIDE CHILDREN'S HOSPITAL, priority 2012, published 2015).
Entries after “also recorded” stand apart in the source; their conditions may differ.

B1: RNase7: recombinant full-length human Ribonuclease 7, amino acids 1-128 (SEQ ID NO: 1), N-terminal His tag (protein, listed as Homo sapiens)
chain: KPKGMTSSQWFKIQHMQPSPQACNSAMKNINKHTKRCKDLNTFLHEPFSSVAATCQTPKIACKNGDKNCHQSHGPVSLTMCKLTSGKYPNCRYKEKRQNKSYVVACKPPQKKDSQQFHLVPVHLDRVL
modifications: N-terminal His tag
B2: F:1-97: recombinant N-terminal RNase 7 fragment, amino acids 1 to 97 (SEQ ID NO: 5), N-terminal His tag (protein, listed as Homo sapiens)
chain: KPKGMTSSQWFKIQHMQPSPQACNSAMKNINKHTKRCKDLNTFLHEPFSSVAATCQTPKIACKNGDKNCHQSHGPVSLTMCKLTSGKYPNCRYKEKR
modifications: N-terminal His tag

What was measured:
[1] = system: ATCC non-uropathogenic strains; assay: RNase7 antibacterial activity, MIC on laboratory strains; type: cell-based; details: ATCC non-uropathogenic strains (N=3 distinct strains)
Description: (§1) Laboratory bacterial strains from the American Type Culture Collection (ATCC, Manassas, Va.) and strains isolated from positive urine cultures were obtained from the Microbiology Laboratory at Nationwide Children's Hospital.

uropathogenic E. coli = assay: RNase7 antibacterial activity, MIC on strains isolated from positive urine cultures; type: cell-based, Escherichia coli; details: uropathogenic E. coli isolated from urine cultures (N=3)
Description: as §1

[2] = system: E. Coli, P. aeruginosa and E. faecalis; assay: Atomic Force Microscopy of bacterial morphology; type: cell-based; details: twice the MIC, 1×10^9 cfu, FIG. 13
Procedure: (See FIG. 13) 1×10^9 cfu of E. Coli, P. aeruginosa and E. faecalis were incubated with twice the MIC of RNase 7. Ultra-pure water was used as a negative control. AFM imaging was performed with the Multimode AFM instrument (Veeco, Santa Barbara, Calif.) at Ohio State.

human erythocytes = type: cell-based
Procedure: Hemolytic assay: To determine the hemolytic activity of RNase 7, washed human erythocytes are incubated for 1 hour at 37° C. with a serial two-fold dilution of recombinant RNase 7 and its fragments in pyrogen free saline. After incubation, centrifugation to remove intact erythrocytes and a 10-fold dilution of supernatant, the concentration of released hemoglobin is measured in a micotitre plate reader at 405 nm. (Biochem J. Feb. 15 2008; 410(1):113-122) The peptide concentration that results in 50% hemolysis of erythrocytes will be designated the HC50.

[3] = system: Human primary bladder urothelial cells and renal medullary epithelial cells; assay: Cytotoxic assay; type: cell-based
Procedure: Cytotoxic assay: The urothelial cells that line the bladder and distal nephron epithelial cells are the primary areas of RNase7 protein expression in the kidney and urinary tract. Thus, the cytotoxicity of variant peptides on these epithelia is determined. Human primary bladder urothelial cells (Catalog #4320, ScienCell Research Laboratories, Carlsbad, Calif.) and renal medullary epithelial cells (Catalog # FC-0018, Lifeline Cell Technology, Frederick, Md.) are cultured according to the manufacture's instructions. Cytotoxicity is measured with the Live/Dead Viability/Cytotoxicity Kit for mammalian cells (Catalog number # L3224, Invitrogen/Molecular Probes, Eugene Oreg.) according to the manufacturer's fluorescence microplate protocol and expressed as the percentage of viable cells after treatment with serial two-fold dilutions of RNase 7 and its deletion fragments incubated for 1 hour at 37° C. The results of the cytotoxic assay are reported as the EC50 or the concentration that results in 50% cell death.

Escherichia coli (UTI89) = assay: SYTOX Green bacterial cell death / membrane permeabilization assay; type: cell-based; details: 3 hours, FIG. 1, compared to full-length
Procedure: (§2) Assays of the permeabilization of bacterial membrane were performed with SYTOX green nucleic acid stain (Invitrogen™). The overnight cultures of bacteria were centrifuged at 5000 rpm for 5 min, the pellets were then washed with water and resuspended in water with an OD=0.5. 90 μl of each bacteria were then incubated with 10 μl of peptides with different concentrations for 3 hours at 37° C. in a 96-well plate. 100 μl of 2 μM SYTOX Green (Invitrogen™) were then added to each well and incubated in dark for 15 min. SYTOX green penetrates cells with compromised membranes not the membranes of live cells. The increase of fluorescence was measured using […] filters for excitation and emission wavelengths, respectively. Bacteria alone and bacteria treated with 70% ethanol were used as controls and the fluorescence from each was recorded as Fmin and Fmax. The percentage of cell death at each concentration for each fragment was calculated as below: death %=(F−Fmin)/(Finax−Fmin)*100%
(§3) To confirm the accuracy of our MIC/MBC data, cell death assays using SYTOX Green (Invitrogen), which selectivity labels nucleic acids of cells with compromised membranes of dead/dying cells were performed. Overnight cultures of bacteria were centrifuged at 5000 rpm for 5 minutes. Pellets were then washed with PBS (pH 7.4) and resuspended in PBS to an OD600 of 0.5 for Escherichia coli (UTI89) and OD600 of 0.8 for Staphylococcus saprophyticus. Per manufacturerer's instructions, 90 μl of each bacteria strain were incubated with 100 μl of 2 uM SYTOX Green for 15 minutes. Ten microliters of peptides at various concentrations were added for 3 hours at 37° C. in a 96-well plate. Compromised bacterial membranes of dead/dying cells will be labeled while lives cells are not labeled as noted by Invitrogen. Fluorescence was measured using 485 and 520-nm filters for excitation and emission wavelengths, respectively. Untreated bacteria were used as a 100% live control, and fluorescence was noted as Fmin. To elicit complete killing, bacteria were treated with 70% ethanol for 1 hour. This experimental group's fluorescence was noted as Fmax. The percentage of cell death at each concentration for each fragment was calculated as (Ffragment−Fmin)/(Fmax−Fmin)×100%.

[4] = system: Staphylococcus saprophyticus; assay: as above; type: cell-based; details: 3 hours, FIG. 2, compared to full-length
Procedure: as §2, §3

| Molecule | mean inhibitory concentration (MIC) [1] [µM] | mean inhibitory concentration (MIC) (uropathogenic E. coli) [µM] | morphological effect on bacteria (AFM) [2] | hemolytic properties (human erythocytes) | cytotoxic properties [3] | membrane permeabilization and death, E. coli (in words) (Escherichia coli (UTI89)) | membrane permeabilization and death, S. saprophyticus (in words) [4] |
| --- | --- | --- | --- | --- | --- | --- | --- |
| B1 | 1.3 | 2.5 | direct bacteriocidal effects on multiple microbes | no cytoxic or hemolytic properties | no cytoxic or hemolytic properties |  |  |
| B2 |  |  |  |  |  | increased permeability; also recorded: improved activity compared to the full-length protein; also recorded: increased membrane permeabilization and subsequent death against both strains | increased permeability; also recorded: improved activity compared to full-length; also recorded: increased membrane permeabilization and subsequent death against both strains |
